Biological target: CD70 (human) (UniProt P32970)
Assay: cell-based or functional assay

Sequence of CD70 (human) (P32970 whole entry): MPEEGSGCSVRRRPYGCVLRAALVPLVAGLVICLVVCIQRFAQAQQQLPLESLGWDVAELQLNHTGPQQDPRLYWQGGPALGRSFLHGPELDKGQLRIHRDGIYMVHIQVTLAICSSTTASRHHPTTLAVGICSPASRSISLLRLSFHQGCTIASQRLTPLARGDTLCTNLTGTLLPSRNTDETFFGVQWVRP

IgG synthesis by purified B cells stimulated with LPS (control): 125 µg/mL
Substance: anti-CD70 monoclonal antibody (HNE51) (Dako)

Source: patent US20070031863A1
